Laboratory results published in US8507656B2, “Stabilized angiopoietin-2 antibodies and uses thereof” (MedImmune Limited, priority 2008, dated 2013).
Entries after “also recorded” stand apart in the source; their conditions may differ. One block for each molecule: values may come before it.

Tests used:
[1] = system: glucose 6 phosphate isomerase (G6PI) arthritis; assay: G6PI arthritis disease model, prophylactic; type: in vivo, male DBA/1J mice; details: for clinical signs of disease progression (arthritic score) (in words): single agents
[2] = system: glucose 6 phosphate isomerase (G6PI) arthritis; assay: G6PI arthritis disease model, therapeutic; type: in vivo, male DBA/1J mice; details: after onset of clinical disease, MEDI1/5 alone, etanercept both doses
Experimental: The effect of treatment with MEDI 1/5 with or without etanercept was evaluated following onset of clinical disease in the glucose 6 phosphate isomerase (G6PI) arthritis disease model. G6PI-induced arthritis was induced in male DBA/1J mice and animals dosed therapeutically with test treatments.
Materials and Methods: The mice in this study were prepared similarly as presented in Example 12.
Dosing: This was a rolling admissions study: once an animal reached a clinical score of 3.5 to 5.0, it was randomly assigned to treatment groups (as outlined below) and dosing began. The day of initial dosing became study day 0 for that animal. Treatment groups were similar to those presented in Example 12.
Termination: Study was terminated 12 days post treatment initiation. No further endpoints were assessed on these animals.

H460 xenograft tumors = type: in vivo; details: 3.19.3 10 mg/kg 2×wk i.p., AZD4877 10 mg/kg q4dx2 i.p., combination of both
Experimental: The anti-tumor activity of 3.19.3 was evaluated in combination with AZD4877 in the
H460 xenograft model of lung cancer. H460 cells were cultured in flasks as routine until the cells reached sub-confluence. Cell suspensions containing approximately 3×10E6 cells were injected subcutaneously into the right flank of male NCr nu/nu mice. When the tumor volume reached 200 mm^3, the mice were randomized in treatment groups of 8-10 mice and the treatments were initiated. 3.19.3 (10 mg/kg) in saline was injected intraperitoneally, twice per week for 2 weeks. AZD4877 (10 mg/kg) was administered by intraperitoneal administration following a q4d schedule. The dimensions of each tumor and body weights were measured at least twice per week. The volume of the tumor was calculated as: Volume=Length×(Width)×0.5 (cm^3).

Tie2 = Tie2 (Homo sapiens, UniProt Q02763); details: Maisonpierre et al., Science 277:55-60 (1997); read-out: affinity (Kd) for Tie2; cited from earlier work
Chain of Tie2 (Q02763 23-1124, species assumed): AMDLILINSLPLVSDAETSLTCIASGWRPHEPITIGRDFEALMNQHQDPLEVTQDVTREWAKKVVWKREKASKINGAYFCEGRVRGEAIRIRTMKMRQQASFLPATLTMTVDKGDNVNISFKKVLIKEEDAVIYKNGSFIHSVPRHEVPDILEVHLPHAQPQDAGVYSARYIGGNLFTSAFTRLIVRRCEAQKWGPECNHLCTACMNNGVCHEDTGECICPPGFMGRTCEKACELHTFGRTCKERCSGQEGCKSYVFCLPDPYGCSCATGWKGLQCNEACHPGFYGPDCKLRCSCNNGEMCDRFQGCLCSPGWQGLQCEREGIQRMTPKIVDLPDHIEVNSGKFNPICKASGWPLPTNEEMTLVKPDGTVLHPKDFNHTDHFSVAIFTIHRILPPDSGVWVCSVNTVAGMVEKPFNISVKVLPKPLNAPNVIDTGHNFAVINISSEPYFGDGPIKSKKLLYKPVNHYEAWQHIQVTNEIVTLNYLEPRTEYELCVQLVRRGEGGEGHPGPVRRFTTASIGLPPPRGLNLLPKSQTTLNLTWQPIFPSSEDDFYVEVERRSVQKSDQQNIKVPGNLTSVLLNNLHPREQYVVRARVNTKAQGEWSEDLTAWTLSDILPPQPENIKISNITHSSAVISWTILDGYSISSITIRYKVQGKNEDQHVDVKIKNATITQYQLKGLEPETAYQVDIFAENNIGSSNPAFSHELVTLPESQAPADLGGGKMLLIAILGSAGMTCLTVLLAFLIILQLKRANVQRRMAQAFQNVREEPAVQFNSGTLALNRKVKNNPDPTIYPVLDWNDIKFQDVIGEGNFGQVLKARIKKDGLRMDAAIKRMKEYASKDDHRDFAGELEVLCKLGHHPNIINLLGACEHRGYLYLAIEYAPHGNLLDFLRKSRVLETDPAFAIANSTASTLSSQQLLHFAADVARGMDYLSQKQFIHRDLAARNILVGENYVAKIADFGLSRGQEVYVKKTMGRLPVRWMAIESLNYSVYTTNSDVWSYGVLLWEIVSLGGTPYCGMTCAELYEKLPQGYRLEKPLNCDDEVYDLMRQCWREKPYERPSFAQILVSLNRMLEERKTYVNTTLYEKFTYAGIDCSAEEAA

Ang-2 = target: T1, Ang-2 (Homo sapiens, UniProt O15123); assay: Competitive Tie-2 Fc/Ang2 ELISA; type: binding; details: competition with immobilized Tie-2; IgG1 or IgG2 format
T1 construct: purchased R & D Systems
T1 sequence (O15123 19-496): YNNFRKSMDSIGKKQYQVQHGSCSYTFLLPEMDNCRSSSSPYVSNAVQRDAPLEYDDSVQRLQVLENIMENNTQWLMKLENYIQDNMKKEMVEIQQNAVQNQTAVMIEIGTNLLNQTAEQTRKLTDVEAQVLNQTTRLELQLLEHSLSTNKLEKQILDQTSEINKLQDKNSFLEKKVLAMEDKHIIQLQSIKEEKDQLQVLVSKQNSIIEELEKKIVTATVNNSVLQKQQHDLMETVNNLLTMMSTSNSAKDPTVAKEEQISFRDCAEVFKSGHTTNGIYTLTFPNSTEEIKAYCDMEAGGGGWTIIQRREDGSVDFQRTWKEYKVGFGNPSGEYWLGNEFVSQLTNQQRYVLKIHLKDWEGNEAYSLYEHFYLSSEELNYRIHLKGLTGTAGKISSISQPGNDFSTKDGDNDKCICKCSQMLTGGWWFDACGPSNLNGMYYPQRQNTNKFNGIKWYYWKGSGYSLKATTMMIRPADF
Experimental: In this example the Ang-2 antibody, 3.19.3, and a modified 3.19.3 antibody comprising a C49T (MEDI1/5) substitution were analyzed for Ang-2 binding in a competitive ELISA format assay.
Competitive Tie-2 Fc/Ang2 ELISA: Maxisorp ELISA plates (Nunc, Rochester, N.Y.) were coated with 100 μl of 4 μg/ml Tie-2 Fc (R & D Systems, Minneapolis, Minn.) in 0.1M carbonate buffer pH 9.4 (Pierce, Rockford, Ill.) and incubated overnight at 4° C. The following day, plates were blocked for 1 hour at room temperature with 200 μl of phosphate buffered saline (PBS) (Invitrogen, Carlsbad, Calif.) containing 0.5% bovine serum albumin (BSA) (Sigma, St. Louis, Mo.) and 0.1% Tween-20 (Sigma, St. Louis, Mo.). Plates were washed 3 times with wash buffer (PBS containing 0.05% Tween-20). 50 μl of 11-point serial tertiary dilutions (30 μg/ml high concentration) of 3.19.3 or modified anti-Ang2 antibody were plated, with PBS as a negative control. For antibody capture, 50 μl of 200 ng/ml Biotin Ang2 (R & D Systems, Minneapolis, Minn.) were added and plates were incubated for 2 hours at room temperature. Plates were washed 3 times with wash buffer. Following the wash, 100 ul of 1:5000 streptavidin HRP (Pierce, Rockford, Ill.) dilution in wash buffer were added and incubated for 1 hour at room temperature. […] Optical densities were measured at 450 nm with a microplate reader (Molecular Devices, Sunnyvale, Calif.).

retinal angiogenesis = assay: Retinal vascularization in mouse pups; type: in vivo, CD1 pups
Experimental: […] At p10, pups were anesthetized with isoflurane and then perfused with 12.5 mg/ml FITC-dextran (Vector Labs). A small slit was made in the cornea and the entire eye was removed from the optic cup before placing into 10% neutral buffered formalin. After 1 hour fixation in formalin, eyes were briefly rinsed in PBS and then placed in a dish of PBS for dissection. Retinas were carefully dissected and cut into a clover leaf formation prior to mounting onto a glass slide with Vectashield (Vector Labs). Images of flatmounts were examined and acquired using fluorescence microscopy (Nikon) with attached digital camera system.

[3] = system: FGF2 mediated angiogenesis; assay: FGF2-induced Matrigel plug assay; type: in vivo, athymic mouse
Experimental: The anti-Ang-2 antibody, MEDI1/5 was evaluated for anti-angiogenic effects in a FGF2 (basic FGF)-induced Matrigel™ plug assay. Recombinant murine FGF2 (rmFGF basic; R&D Systems) was pre-mixed with Matrigel™ (reduced growth factor, phenol red-free; Trevigen) at 1 μg/ml. Each 5-6 week old female athymic mouse was subcutaneously implanted with 500 gl of FGF2/Matrigel™ mixture. Antibody MEDI1/5 was administered 10 minutes prior to FGF2/Matrigel™ implantation and continued every three days given intraperitoneal at 1, 10, and 20 mg/kg for a total of 3 doses. The extent of angiogenesis was assessed after 10 days by measuring dextran functioning vessels. Mice were intervenously injected with 100 gl FITC-Dextran (250,000MW; Sigma) at 25 mg/ml in saline. Twenty minutes post FITC-Dextran injection, mice are humanely euthanized and plugs dissected out. Plugs are then placed in lysing matrix tubes A (MP Biomedicals) containing 1 ml of PBS and homogenized on FastPrep machine (MP Biomedicals) for 60 seconds at 6.0 M/S. Samples were then centrifuged at 10,000 rpm for 5 minutes and supernatant collected. 200 μl of each sample (in duplicates) was then placed into a white, clear bottom 96 well plate and FITC output was read on EnVision instrument (Perkin Elmer).
For histology purposes, plugs were harvested and placed into 10% neutral-buffered formalin, processed and then paraffin embedded. The paraffin embedded tissues were then sectioned and stained with hematoxylin and eosin.

Molecule: etanercept
% Disease free joints ([1]; 1 mg/kg etanercept, 1 mg/kg): 22% | % Disease free joints ([1]; 4 mg/kg etanercept, 4 mg/kg): 53% | % Disease free joints ([1]; 4 mg/kg etanercept, listed as enbrel, 4 mg/kg): 53% | clinical signs of disease progression (arthritic score) (in words) [1]: Reductions in clinical signs of disease progression; also recorded: reduction | clinical signs of disease progression (arthritic score) (in words) [2]: no effect on disease progression

Molecule: Cc1ccc(C(=O)N(CCCN)C(c2nc3snc(C)c3c(=O)n2Cc2ccccc2)C(C)C)cc1 (centres unmarked) [AZD4877]
% tumor growth inhibition (H460 xenograft tumors): 50%

Molecule: Ang-2: angiopoietin, ligand of Tie2; antigen of the antibodies
Kd (Tie2): 3 nM

B1: Ang-1: angiopoietin, ligand of Tie2 (protein, UniProt Q15389 16-498, looked up)
Angiopoietin-1: HIGCSNQRRSPENSGRRYNRIQHGQCAYTFILPEHDGNCRESTTDQYNTNALQRDAPHVEPDFSSQKLQHLEHVMENYTQWLQKLENYIVENMKSEMAQIQQNAVQNHTATMLEIGTSLLSQTAEQTRKLTDVETQVLNQTSRLEIQLLENSLSTYKLEKQLLQQTNEILKIHEKNSLLEHKILEMEGKHKEELDTLKEEKENLQGLVTRQTYIIQELEKQLNRATTNNSVLQKQQLELMDTVHNLVNLCTKEGVLLKGGKREEEKPFRDCADVYQAGFNKSGIYTIYINNMPEPKKVFCNMDVNGGGWTVIQHREDGSLDFQRGWKEYKMGFGNPSGEYWLGNEFIFAITSQRQYMLRIELMDWEGNRAYSQYDRFHIGNEKQNYRLYLKGHTGTAGKQSSLILHGADFSTKDADNDNCMCKCALMLTGGWWFDACGPSNLNGMFYTAGQNHGKLNGIKWHYFKGPSYSLRSTTMMIRPLDF
Kd (Tie2): 3 nM

binding profile for Ang-2 compared to 3.19.3 (in words) (Ang-2): very similar binding profile
B2: MEDI1/5: anti-Ang-2 antibody with MEDI1 light chain (SEQ ID No. 3) and MEDI5 heavy chain (SEQ ID No. 7); isotype not stated (antibody)
VH: QVQLVESGGGVVQPGRSLRLSCAASGFTFTNYGMHWVRQAPGKGLEWVAVISHDGNNKYYVDSVKGRFTISRDNSKNTLYLQMNSLRAEDTAVYYCAREGIDFWSGLNWFDPWGQGTLVTVSS
light: EIVLTQSPGTLSLSPGERATLSCRASQSITGSYLAWYQQKPGQAPRLLITGASSWATGIPDRFSGSGSGTDFTLTISRLEPEDFAVYYCQQYSSSPITFGQGTRLEIKRTVAAPSVFIFPPSDEQLKSGTASVVCLLNNFYPREAKVQWKVDNALQSGNSQESVTEQDSKDSTYSLSSTLTLSKADYEKHKVYACEVTHQGLSSPVTKSFNRGEC
extent of retina vasculature (in words) (retinal angiogenesis; MEDI1/5 0.3 mg/kg): extend to the outer edge of retina | retinal angiogenesis (in words) (retinal angiogenesis; MEDI1/5 0.3, 1.0 and 10 mg/kg i.p. at p1, p3, p5, retinas at p10): dose-dependent inhibition of retinal angiogenesis; also recorded: inhibited in a dose-dependent fashion | vessels in plugs, hematoxylin and eosin staining (in words) ([3]; FGF2+MEDI1/5 plugs vs FGF2 plugs alone): fewer vessels; also recorded: lower level of vascularization | amount of FITC-dextran present in plugs ([3]; MEDI1/5 1, 10, and 20 mg/kg i.p., 3 doses, FGF2 1 μg/ml plugs (FGF2 alone approximately 0.78 μg)): 0.05 to 3 µg | FITC-dextran content / angiogenesis in plugs (in words) ([3]; MEDI1/5 1, 10 or 20 mg/kg i.p., vs FGF2 plugs): significant reduction in FITC-dextran; also recorded: significant reduction in angiogenesis | % Disease free joints ([1]; 10 mg/kg MEDI1/5, 10 mg/ml Isotype control (so in the source), 10 mg/kg): 31% | clinical signs of disease progression (arthritic score) (in words) [1]: Reductions in clinical signs of disease progression; also recorded: reduction | clinical signs of disease progression (arthritic score) (in words) [2]: modest reductions in clinical signs of disease progression
